Test results as given in patent US20260364189 (published 2026).

T1: fasTFR1 (cell-expressed) (Macaca fascicularis)
T1 chain: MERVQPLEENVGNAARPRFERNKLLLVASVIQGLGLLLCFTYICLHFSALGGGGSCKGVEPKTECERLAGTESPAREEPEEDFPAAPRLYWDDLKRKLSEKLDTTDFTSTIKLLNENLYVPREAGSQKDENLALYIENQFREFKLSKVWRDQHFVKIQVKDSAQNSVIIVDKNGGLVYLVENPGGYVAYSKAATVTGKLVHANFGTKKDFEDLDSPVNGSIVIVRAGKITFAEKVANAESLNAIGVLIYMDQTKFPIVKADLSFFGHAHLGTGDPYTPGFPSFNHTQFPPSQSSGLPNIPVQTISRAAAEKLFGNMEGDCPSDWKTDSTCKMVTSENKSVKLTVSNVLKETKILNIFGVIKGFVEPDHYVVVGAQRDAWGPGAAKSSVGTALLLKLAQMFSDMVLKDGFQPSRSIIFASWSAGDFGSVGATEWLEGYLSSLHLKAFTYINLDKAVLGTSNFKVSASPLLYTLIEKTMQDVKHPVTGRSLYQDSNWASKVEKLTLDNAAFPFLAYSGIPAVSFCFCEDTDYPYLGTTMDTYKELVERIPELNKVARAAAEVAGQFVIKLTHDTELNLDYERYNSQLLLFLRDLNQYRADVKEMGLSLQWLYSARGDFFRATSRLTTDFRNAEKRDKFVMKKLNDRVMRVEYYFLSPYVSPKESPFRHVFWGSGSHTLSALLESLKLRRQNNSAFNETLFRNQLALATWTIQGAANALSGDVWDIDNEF


Assays:
hTFR1-His = hTFR1-His (human, UniProt P02786); experiment: SPR
hTFR1-His, sequence (P02786 89-760): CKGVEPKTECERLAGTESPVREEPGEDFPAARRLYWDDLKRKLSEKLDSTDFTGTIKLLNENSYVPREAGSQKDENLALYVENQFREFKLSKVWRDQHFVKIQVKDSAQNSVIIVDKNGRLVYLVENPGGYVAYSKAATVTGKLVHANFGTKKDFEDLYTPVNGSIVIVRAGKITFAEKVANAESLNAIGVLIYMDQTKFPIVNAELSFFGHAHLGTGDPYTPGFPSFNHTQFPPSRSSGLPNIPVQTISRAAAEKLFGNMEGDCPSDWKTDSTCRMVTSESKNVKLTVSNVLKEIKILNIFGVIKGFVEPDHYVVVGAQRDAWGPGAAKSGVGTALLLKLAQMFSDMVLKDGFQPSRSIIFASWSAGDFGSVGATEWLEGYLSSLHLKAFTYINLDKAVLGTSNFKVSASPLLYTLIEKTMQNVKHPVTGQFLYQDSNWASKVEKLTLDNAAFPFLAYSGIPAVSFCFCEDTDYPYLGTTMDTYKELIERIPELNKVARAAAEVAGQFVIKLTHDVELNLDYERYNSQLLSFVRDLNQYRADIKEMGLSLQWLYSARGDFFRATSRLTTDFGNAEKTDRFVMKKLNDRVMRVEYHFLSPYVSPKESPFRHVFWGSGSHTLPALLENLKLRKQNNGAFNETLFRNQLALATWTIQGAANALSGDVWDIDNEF

fasTFR1 (cell-expressed) = molecular target: T1, fasTFR1 (cell-expressed); experiment: FACS

Kd (hTFR1-His)	binding result (fasTFR1 (cell-expressed))	Binder
2.05 nM	–	24G5 (designed binder) QLQLQESGGGLVQPGGSLRLTCAASGFTFSSFAMSWVRQAPGKGLERVSEISDSGGNTYYADSVKGRFTISRDNSKNTLYLQMNSLRAEDTAVYYCAKDDSSGWAFNIWDQGTVVTVSS
2.93 nM	–	24A1 (designed binder) EVQLVESGGGLVQPGGSLRLTCAASGFTFSSYAMSWVRQAPGKGLERVSEISGSGSSTNYADSVKGRFTISRDNSKNTLYLQMNSLRAEDTAVYYCAKDDSSGWAFNIWDQGTVVTVSS
8.73 nM	–	23B8 (antibody, V domains shown) VH: QVTLKESGGGLVKPGGSLRLSCAASGFPFSNAWMNWVRQAPGKGLEWVGHIKSKTDGGTTDYAAPVKGRFTISRDDSKNMVFLQMNSLKTEDTAVYYCTTDRAYCGGDCSHYYYHDLDVWGQGTTVTVSS
14.3 nM	no binding	24C9 (antibody, V domains shown) VH: EVQLVQSGGGVVQPGRSLRLSCAASGFTLSSYGMYWVRQAPGKGREWVAFIRFDESKKYYADSVKGRFTISRDNSKNTLYLQMNSLRAEDTAVYYCARDGEGGYCTNGVCHGLDVWGQGTTVTVSS
